Results published in patent US20190276531A1 (SYMPHOGEN A S, published 2019).

How the values were obtained:
[1] = molecular target: T1, R-PE-labeled human TIM-3-Fc chimera protein (R&D Systems) (human, UniProt Q8TDQ0 22-200, conjugated to R-phycoerythrin (R-PE), sites not stated); assay: flow cytometry competition: R-PE-labelled TIM-3-Fc pre-mixed with titrated antibody, then binding to phosphatidylserine-positive apoptotic Jurkat cells (MFI); blocked ligand: phosphatidylserine; unit taken from the axis log(Concentration) µg/ml
T1 construct: Bought; also called TIM-3-PE; soluble TIM-3-Fc; Fc part of the bought chimera not given, not described

[2] = molecular target: T2, human TIM-3 Fc fusion antigen (Sino Biologicals) (human, UniProt Q8TDQ0 22-202); assay: ELISA; TIM-3 Fc fusion coated at 1 µg/ml, antibody titrated 2-fold from 1000 nM, HRP secondary
T2 construct: Bought; also called human TIM-3 ECD; not shown: Fc part of the bought fusion protein, not described

[3] = molecular target: T3, monomeric human TIM-3 ECD antigen (Acro Biosystems) (human, UniProt Q8TDQ0 22-202); assay: SPR (IBIS MX96); antibody captured on anti-human IgG Fc sensor, monomeric human TIM-3 ECD injected 2-100 nM; 1:1 Langmuir fit
T3 construct: Bought; also called soluble monovalent TIM-3 antigen (Acro Biosystems, China)

[4] = molecular target: T4, cynomolgus TIM-3 ECD fused C-terminally to human IgG1 Fc (made in-house, ExpiCHO) (cynomolgus monkey (Macaca …)); assay: SPR (IBIS MX96); TIM-3 ECD-Fc captured on anti-human IgG Fc sensor, Fab injected 1-100 nM; 1:1 Langmuir fit
T4 construct: whole entry named
T4 chain: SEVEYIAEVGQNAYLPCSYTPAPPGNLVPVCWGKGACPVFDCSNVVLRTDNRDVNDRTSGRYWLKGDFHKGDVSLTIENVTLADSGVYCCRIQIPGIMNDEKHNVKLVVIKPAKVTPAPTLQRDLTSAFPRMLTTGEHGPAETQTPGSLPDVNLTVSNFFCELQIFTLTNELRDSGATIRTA

B1: antibody 15086.17145 (antibody, human IgG2, kappa)
heavy: QVQLQESGPGLVKPSQTLSLTCTVSGGSISSGGYYWSWTRQHPGMGLEWIGYISYSGSIYYTPSLKSRLTISVDTSKNQFSLKLSSVTAADTAVYYCASLDSWGSNRDYWGQGTLVTVSSASTKGPSVFPLAPCSRSTSESTAALGCLVKDYFPEPVTVSWNSGALTSGVHTFPAVLQSSGLYSLSSVVTVPSSNFGTQTYTCNVDHKPSNTKVDKTVERKCCVECPPCPAPPVAGPSVFLFPPKPKDTLMISRTPEVTCVVVDVSHEDPEVQFNWYVDGVEVHNAKTKPREEQFNSTFRVVSVLTVVHQDWLNGKEYKCKVSNKGLPAPIEKTISKTKGQPREPQVYTLPPSREEMTKNQVSLTCLVKGFYPSDIAVEWESNGQPENNYKTTPPMLDSDGSFFLYSKLTVDKSRWQQGNVFSCSVMHEALHNHYTQKSLSLSPGK
light: not shown
Binder B1 has an IC50 [1] of 0.651 mg/L, an EC50 [2] of 0.125 nM and a Kd [3] of 19 nM.

B2: Fab 20131 (Fab, V domains shown)
VH: QVQLQQSGGGLVQPGGSLRLSCAASGFTLSSYAMSWVRQAPGKGLEWVSGISGSGGSTYNADSVKGRFTISRDNSKNTLFLQMNSLRAEDTAVYYCAKIFGSYYFDYWGQGTLVTVSS
VL: not shown
notes: not shown: cleavage site not s
Binder B2 has a Kd [4] of 22 nM.

B3: antibody 19324 (antibody, V domains shown)
VH: QMQLQQSGGGLVQPGGSLRLSCAASGFTVSSYAMSWVRQALGKGLEWVSGISGSGGSTYYADSVKGRFTISRDNSKNTLYLQMNSLRAEDTAVYYCAKIVGATHFDYWGQGTLVTVSS
VL: not shown
For B3, the EC50 [2] was 0.73 nM.

B4: antibody 20300 (antibody, V domains shown)
VH: QVQLQQSGGGLVHPGGSLRLSCAASGFTVDTYAMTWVRQAPGKGLEWVSGISGSGGSTYYADSVKGRFTISRDNSKNTLYLQMNSLRDEDTAVYYCAKIVGVTHFDYWGQGTLVTVSS
VL: not shown
For B4, the EC50 [2] was 1.13 nM.

B5: antibody 19416 (antibody, V domains shown)
VH: QVQLVESGPGLVKPSQTLSLTCTVSGGSINSGGYYWSWIRQHPGKGLEWIGYIYYSGSIYYNPSLRSRLTISVDTSKNQFSLKLSSVTAADTAVYYCATPYYYGSGSYGDYWGQGTLVTVSS
VL: DIQMTQSPATLSLSPGERATLSCRASQSVNNYLAWYQQKPGQAPRLLIYDASNRATGIPARFSGSGSGTDFTLTISSLEPEDFAVYYCQQRSNWPITFGQGTRLEIK
In the case of B5, the EC50 [2] is reported as 0.2 nM.

B6: antibody 19568 (antibody, V domains shown)
VH: QMQLQESGPGLVKPSQTLSLTCTVSGGSISSVGYYWNWIRQHPGKGLEFIGYIYYSGSIYYNPSLKSRVTISVDTSKNQFSLKLSSVTAADTALYYCASVGIVGASYFEYWGQGTLVTVSS
VL: EIVMTQSPATLSLSPGERATLSCRASQSVSSYLAWYQQKPGQAPRLLIYDASNRATGIPARFSGSGSGTDFTLTISSLEPEDFAVYYCQQRSNWPITFGQGTRLEIK
Binder B6 has an EC50 [2] of 0.38 nM.

B7: antibody 20185 (antibody, V domains shown)
VH: QVQLVESGGGLVRPGGSLRLSCAVSGFTFSSYAMSWVRQAPGKGLEWVSGISGSGGSTYNADSVKGRFTISRDNSKNTLYLQMNSLRAEDTAVYYCAKIFGSYYFDYWGQGTLVTVSS
VL: not shown
B7 showed an EC50 [2] of 0.17 nM.

B8: antibody 20362 (antibody, V domains shown)
VH: QVTLKESGPGLVKPSQTLSLTCTVSGGSISSGGHYWSWIRQHPGKGLEWIGYISYSGSTYYNPSLKSRLTISVDTSKNQFSLKLSSVTAADTAVYYCATAYYDILTGYPFDYWGQGTLVTVSS
VL: EIVMTQSPATLSLSPGERATLSCRASQSVSSYLAWYQQKPGQAPRLLIYDASDRATGIPARFSGSGSGTDFTLTISSLEPEDFAVYYCQQRSNWPITFGQGTRLEIK
In the case of B8, the EC50 [2] is reported as 0.26 nM.

B9: antibody 20621 (antibody, V domains shown)
VH: QVQLQQSGPGLVKPSQTLSLTCTVSGGSISSGGYYWSWIRQHPGKGLEWIGYISYSGSIYYNPSLKSRVTISVDTSKNQFSLKLSSVTATDTAVYYCATAYYDLLTGYPFDYWGQGTLVTVSS
VL: EIVMTQSPATLSLSPGERATLSCRASQSVSSYLAWYQQKPGQAPRLLIYDASNRATGIPARFSGSGSGTDFTLTISSLEPEDFAVYYCQQRSNWPITFGQGTRLEIK
B9 showed an EC50 [2] of 0.22 nM.
